Assay results as given in paper PMC3149894 (Journal of molecular biology, 2010).

B1: knobΔTAYT protein containing an MA(H)6 tag at the N-terminus (Ad5 fiber knob, TAYT deleted) (domain or fragment, human adenovirus serotype 5, UniProt P11818 387-581, looked up)
chain: GAITVGNKNNDKLTLWTTPAPSPNCRLNAEKDAKLTLVLTKCGSQILATVSVLAVKGSLAPISGTVQSAHLIIRFDENGVLLNNSFLDPEYWNFRNGDLTEGNAVGFMPNLSAYPKSHGKTAKSNIVSQVYLNGDKTKPVTLTITLNGTQETGDTTPSAYSMSFSWDWSGHNYINEIFATSSYTFSYIAQE
B2: knobΔTAYT version with an N-terminal MA(H)6 tag followed by an AviTag (biotinylated) (domain or fragment, human adenovirus serotype 5, UniProt P11818 387-581, looked up)
chain: B1 chain
modifications: biotin (biotinylated in the host by protein biotin ligase from pBirA)
B3: biotinylated knobΔTAYT protein carrying an N-terminal MRGS(H)6 tag followed by an AviTag (domain or fragment, human adenovirus serotype 5, UniProt P11818 387-581, looked up)
chain: B1 chain
modifications: biotin (biotinylated in the host by protein biotin ligase from pBirA)

Molecular target: the molecule itself
Experiment: SEC-MALS + other: SDS-PAGE

Protein | stoichiometry N
B1 | 3
B2 | 3
B3 | 3
